The target of assay [1] is melanoma antigen presented by HLA-A1 on HLA-A1+, HLA-A2- melanoma cell lines (peptide not identified) (human).
For assay [2], the target named is melanoma antigen presented by HLA-A2 on HLA-A2+ melanoma cell lines (peptide not identified in the experiment) (human).
The target in assay [3] is MART-1 antigen processed in the cell and presented by HLA-A2.1 (human) (UniProt Q16655).
For assay [4], the target named is gp100 antigen processed in the cell and presented by HLA-A2.1 (human) (UniProt P40967).
Assay [5] deals with MART-1(22-30) peptide … pulsed on HLA-A2.1 T2 cells (human).
For assay [6], the target named is MART-1(26-35) peptide … presented by HLA-A2.1 (human).
Assay [7] deals with MART-1(27-35) peptide … presented by HLA-A2.1 (human).
The target of assay [8] is MART-1(27-36) peptide … presented by HLA-A2.1 (human).
Assay [9] addresses gp100(280-288) peptide … presented by HLA-A2.1 (human).
Assay [10] has as its target melanoma antigen presented by HLA-A1 on HLA-A1+, HLA-A2- melanoma cell lines (peptide not identified) (human). The source holds these as a separate data set.
Assay [11] addresses melanoma antigen presented by HLA-A2 on HLA-A2+ melanoma cell lines (peptide not identified in the experiment) (human). This is another data set of the same source.
For assay [12], the target named is MART-1(22-30) peptide … pulsed on HLA-A2.1 T2 cells (human). This is another data set of the same source.
Assay [13] concerns the target MART-1(27-35) peptide … presented by HLA-A2.1 (human). This is another data set of the same source.
Assay [14] concerns the target MART-1(27-36) peptide … presented by HLA-A2.1 (human). The source holds these as a separate data set.
Assay [15] has as its target MART-1(32-40) peptide … pulsed on HLA-A2.1 T2 cells (human).
In assay [16] the target is gp100(457-465) peptide … presented by HLA-A2.1 (human).
Assay [17] concerns the target 38 kD folate binding protein (FBP) (Homo sapiens (Human)) (UniProt P15328).
The target is the same in assay [18]. This is another data set of the same source.
The target is the same in assay [19]. This is another data set of the same source.
The target of assay [20] is melanoma antigen presented by HLA-A1 on HLA-A1+, HLA-A2- melanoma cell lines (peptide not identified) (human). The source holds these as a separate data set.
For assay [21], the target named is melanoma antigen presented by HLA-A2 on HLA-A2+ melanoma cell lines (peptide not identified in the experiment) (human). The source holds these as a separate data set.
For assay [22], the target named is MART-1(26-35) peptide … presented by HLA-A2.1 (human). This is another data set of the same source.
In assay [23] the target is MART-1(27-35) peptide … presented by HLA-A2.1 (human). This is another data set of the same source.
Assay [24] has the same target. This is another data set of the same source.
In assay [25] the target is CD3 on murine TIL (murine).
Assay [26] concerns the target MART-1 antigen processed in the cell and presented by HLA-A2.1 (human) (UniProt Q16655). The source holds these as a separate data set.
Assay [27] deals with melanoma antigen presented by HLA-A1 on HLA-A1+, HLA-A2- melanoma cell lines (peptide not identified) (human). The source holds these as a separate data set.

In the case of “clone A42 TCR (TIL A42 clonotype, Vα21/Jα42/Cα and Vβ7.3/Dβ2.1/Jβ2.7/Cβ2)”, the % lysis, 5 hr 51Cr release, E:T 20:1 came to 0 % lysis in assay [1] and 57 % lysis in assay [2]. Besides, the IFN-γ Secretion in [3] was 730 pg/mL; in assay [4] it was less than 10 pg/mL; in assay [5], 16 pg/mL; in assay [6], 765 pg/mL; in assay [7], more than 20000 pg/mL; in assay [8], 22 pg/mL. Also, the values for the IFN-γ Secretion in assay [9], in assay [10] and in assay [11] were 19 pg/mL, 18 pg/mL and 772 pg/mL, respectively.

With “Jurkat neo (non-transfected Jurkat cells with the endogenous Jurkat TCR, Vβ8)”, the IL-2 released in assay [12], in [13], in assay [14], in [15] and in [16] was less than 10 pg/mL throughout.

As for “MOv-γ chimeric receptor (scFv of MoAb MOv18 joined to the Fc receptor γ chain) (CAR)”, the pg mIFN-γ/ml/5 × 10^5 cells/16 hours in assay [17] is 16000 pg/mL. The mIFN-γ, pg/1.5 × 10^6 splenocytes/ml/48 hrs, fresh splenocytes in assay [18] was determined as 1080 pg/mL. This substance also had a mIFN-γ, pg/1.5 × 10^6 splenocytes/ml/18 hrs, activated splenocytes in assay [19] of 2830 pg/mL.

For the substance “clone 5 TCR (TIL5 clonotype, Vα1/Jα49/Cα and Vβ7.3/Dβ2.1/Jβ2.1/Cβ2)”, the % lysis, 4 hour 51Cr release, E:T 10:1 in [20] was -2 % lysis; in assay [21], 52 % lysis. The IL-2 released in assay [12] is less than 10 pg/mL; in assay [22] it was 4060 pg/mL; in assay [13] it was 4760 pg/mL; in assay [14], 469 pg/mL; in assay [15], less than 10 pg/mL; in assay [16], less than 10 pg/mL. For the same substance, the IL-2 released (pg/ml), HLA-A2+ melanoma cells loaded with peptide in assay [23] was 540 pg/mL. Also, the concentration of peptide required to provide 50% of maximal IL-2 stimulation in assay [24] is 50 to 200 nM.

In the case of “TIL 1200 TCR (TIL 1200 clonotype, Vα9/Jα16/Cα and Vβ22.1/Dβ2.1/Jβ2.1/Cβ2)”, the % lysis, 4 hour 51Cr release, E:T 40:1 in [20] was 2 % lysis; in assay [21] it was 68 % lysis. In addition, the figures for the IFN-γ Secretion in [3] and in assay [4] were less than 10 pg/mL and 451 pg/mL, respectively. The GM-CSF released in [12] was less than 10 pg/mL; in [22] it was 23 pg/mL; in assay [13], 19 pg/mL; in assay [14], 19 pg/mL; in assay [15], less than 10 pg/mL; in [16] it was 240 pg/mL.

2C11 (anti-CD3) antibody: the pg mIFN-γ/ml/5 × 10^5 cells/16 hours in [25] is more than 50000 pg/mL.

For the substance “TIL 501 (uncloned TIL culture) (cells without a defined receptor)”, the IFN-γ Secretion is 121 pg/mL in assay [3] and less than 10 pg/mL in assay [4].

Regarding “TIL F2-2 TCR (TIL F2-2 clonotype, Vα17/Jα42/Cα and Vβ6.5/Dβ1.1/Jβ1.5/Cβ1)”, the % lysis, 4 hour 51Cr release, E:T 40:1 in [20] was 1 % lysis; in assay [21], 46 % lysis.

On to “TIL 660 (uncloned TIL line) (cells without a defined receptor)”, for which the IFN-γ Secretion in assay [5] came out at 21 pg/mL; in assay [6] it was 1120 pg/mL; in assay [7], 2330 pg/mL; in [8], 52 pg/mL; in [9], 1320 pg/mL; in assay [10], 27 pg/mL. Besides, the IFN-γ Secretion in [11] came to 585 pg/mL.

In the case of “TIL 1143 (uncloned TIL culture) (cells without a defined receptor)”, the IFN-γ Secretion in [3] amounted to 986 pg/mL; in [4], 199 pg/mL.

Turning to “TIL C10-1 TCR (C10-1 T-cell clonotype, Vα8.2/Jα49/Cα and Vβ13.6/Dβ1.1/Jβ1.5/Cβ1)”, the % lysis, 4 hour 51Cr release, E:T 40:1 in [20] turned out to be 55 % lysis; in assay [21], 0 % lysis.

Substance “TIL 1235 (uncloned TIL line) (cells without a defined receptor)” registered an IFN-γ Secretion in assay [9] of 15 pg/mL. Moreover, the GM-CSF released in assay [12] was 21 pg/mL; in assay [22], 6710 pg/mL; in [13], 11900 pg/mL; in assay [14], 614 pg/mL; in assay [15] it was less than 10 pg/mL; in assay [16], 27 pg/mL. Moreover, the results for the GM-CSF released in assay [26] and in [27] were 557 pg/mL and less than 10 pg/mL, respectively.

In assay [17], “nontransduced murine MC38 TIL (cells without a defined receptor)” came in with a pg mIFN-γ/ml/5 × 10^5 cells/16 hours of 1640 pg/mL.

Consider “Sp-γ chimeric receptor (scFv of anti-2,4,6 TNP MoAb Sp6 joined to the Fc receptor γ chain) (CAR)”, for which the pg mIFN-γ/ml/5 × 10^5 cells/16 hours in [17] came to 1010 pg/mL.

In turn, “splenocytes of normal mice (cells without a defined receptor)” came in with a mIFN-γ, pg/1.5 × 10^6 splenocytes/ml/48 hrs, fresh splenocytes in [18] of 92 pg/mL.

As for “clone 1E2 TCR (TIL 1E2 clonotype, Vα25/Jα54/Cα and Vβ3.1/Dβ1.1/Jβ1.1/Cβ1)”, the % lysis, 5 hr 51Cr release, E:T 20:1 in assay [1] came to 0 % lysis; in assay [2], 94 % lysis. In addition, the IFN-γ Secretion in assay [3] was 1340 pg/mL; in [4], less than 10 pg/mL; in assay [5], 18 pg/mL; in [6] it was 5250 pg/mL; in assay [7], 16500 pg/mL; in [8], 24 pg/mL. Also, the results for the IFN-γ Secretion in [9], in assay [10] and in assay [11] were 21 pg/mL, 29 pg/mL and 2700 pg/mL, respectively.

The record behind these values is patent US5830755.
